Experimental findings from US6664090B1, “Carboxylesterase nucleic acid molecules, proteins and uses thereof” (Heska Corporation, priority 1996, dated 2003) are described below.

Data set [1] can be described thus: general carboxylesterase (CE) activity assay, hydrolysis of α-napthyl acetate, Fast Blue, 590 nm. In kind it is biochemical. As to conditions: purified recombinant protein from S. frugiperda:pVL-nfE91600 supernatant, size exclusion fractions. The procedure:
Tissue samples and soluble extracts were prepared as described above in Example 1, except not labelled, from unfed (UF) and bovine blood-fed 1st instar flea larvae, bovine blood-fed 3rd instar flea larvae, bovine blood-fed prepupal flea larvae, unfed whole adult fleas, cat blood-fed adult (ACF) whole fleas, cat blood-fed adult fleas that have had their heads and midguts removed (referred to herein as fed adult partial fleas), unfed adult flea midguts and cat blood-fed adult flea midguts. About 5 tissue equivalents of each tissue were assayed for general CE activity using the following method. Tissue samples of about 5 μl were added to separate wells of flat-bottomed microtiter plate (available from Becton Dickinson, Lincoln Park, N.J.). A control well was prepared by adding about 5 μl of Tris buffer to an empty well of the plate. About 95 μl of 25 mM Tris-HCl (pH 8.0) was then added to each sample to increase the volume in each well to about 100 μl. About 100 μl of 0.25 mM α-napthyl acetate (available from Sigma, St. Louis, Mo.) dissolved in 25 mM Tris-HCl (pH 8.0) was then added to each well. […]
The microtiter plate was then analyzed using a Cambridge Technology, Inc. (Watertown, Pa.) model 7500 Microplate Reader set to 590 nm. The absorbance value for the control sample was subtracted from absorbance values of experimental samples, such that the background value was zero.

A short description of data set [2]: juvenile hormone esterase (JHE) activity assay, hydrolysis of 3H-juvenile hormone to juvenile hormone acid. In kind it is biochemical. The following applies: purified recombinant protein from S. frugiperda:pVL-nfE91600 supernatant, size exclusion fractions. The procedure:
Unlabeled juvenile hormone (JH; available from ICN Biomedicals, Inc., Aurora, Ohio) was diluted in hexane to concentration of about 0.025 M. Labeled 10-^3H-juvenile hormone (^3H-JH; available from Dupont-NEN) was diluted in hexane to concentration of about 80,000 cpm/μl. A JH substrate mixture was prepared by mixing about 20 μl of unlabeled JH with about 80 μl of ^3H-JH (about 5 μCi) in a 4 ml screw cap vial. The substrate mixture was then covered with nitrogen (i.e., “blanketed”) and the solvent contained in the mixture was evaporated by heating the mixture at 35° C. When just dry, about 1 ml of absolute anhydrous ethanol (final concentration 5×10^−4 M, or 6400 cpm/μl) was added to the vial. The substrate mixture was then stored at −20° C.
About 5 equivalents of each tissue (about 5 μl of protein) was added into the bottom of a small glass autosampler vial. About 95 μl of Tris-buffered saline (TBS) was added to each vial to bring the final volume in each vial to about 100 μl. Two control samples were also prepared by adding 100 μl TBS to two separate vials. […]
To measure labeled juvenile hormone acid, about 250 μl isooctane was added to each vial. […] The amount of ^3H-juvenile hormone acid contained in each vial was determined using a Beckman LS-1801 liquid scintillation counter (available from Beckman, Fullerton, Calif.).
For orientation: In gel filtration, larger molecules generally elute earlier.

B1: PfE9528: full-length flea esterase protein of about 528 amino acids, SEQ ID NO:37, encoded by nfE92007 (protein, listed as Ctenocephalides felis)
chain: MADLQVTLLQGTLKGKEQISEKGNVFHSYSGIPYAKPPVGDLRFKPPQPAEPWSGVLDASKEGNSCRSVHFIKKIKVGAEDCLYLNVYVPKTSEKSLLPVMVWIHGGGFFMGSGNSDMYGPEYLMDYGIVLVTFNYRLGVLGFLNLGIEEAPGNVGLMDQVEALKWVKNNIASFGGDPNNVTIFGESAGGASVHYLMLSDLSKGLFHKAISQSGSAFNPWALQHDNNKENAFRLCKLLGHPVDNETEALKILRQAPIDDLIDNRIKPKDKGQLIIDYPFLPTIEKRYQNFEPFLDQSPLSKMQSGNFTKVPFICGYNSAEGILGLMDFKDDPNIFEKFEADFERFVPVDLNLTLRSKESKKLAEEMRKFYYQDEPVSSDNKEKFVSVISDTWFLRGIKNTARYIIEHSSEPLYLYVYSFDDFGFLKKLVLDPNIEGAAHGDELGYLFKMSFTEFPKDLPSAVVNRERLLQLWTNFAKTGNPTPEINDVITTKWDKATEEKSDHMDIDNTLRMIPDPDAKRLRFWNKFL
As to B1, in data set [1], the carboxylesterase activity entry was “carboxylesterase activity”. In addition, the “juvenile hormone esterase activity” value in data set [2] was “juvenile hormone esterase activity”.
